Assay results from article PMC10691330.

Tests used:
Assay in all cases: packaging into virions
[1] = molecular target: HIV-1 P capsid protein (p24) (HIV-1 group P)
[2] = molecular target: HIV-1 O capsid protein (p24) (HIV-1 group O)
[3] = molecular target: HIV-1 N capsid protein (p24) (HIV-1 group N)
[4] = molecular target: HIV-1 M capsid protein (p24) (HIV-1 group M)

Chain of HA-tagged cyclophilin A (CYPA-HA) (P62937 whole entry): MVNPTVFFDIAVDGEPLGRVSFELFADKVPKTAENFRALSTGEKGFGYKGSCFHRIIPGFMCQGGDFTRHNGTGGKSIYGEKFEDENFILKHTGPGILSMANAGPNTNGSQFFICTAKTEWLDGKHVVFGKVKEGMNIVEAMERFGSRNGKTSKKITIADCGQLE

## HA-tagged cyclophilin A (CYPA-HA) (from UniProt P62937 1-165) (natural protein)
[1]
  percent reduction of virion-associated CYPA by 1 µM CsA: 70%
[2]
  percent reduction of virion-associated CYPA by 1 µM CsA: 70%
[3]
  percent reduction of virion-associated CYPA by 1 µM CsA: 70%
[4]
  percent reduction of virion-associated CYPA by 1 µM CsA: 40%
